{"source": "patent US7893027B2", "about": "“Treatment of ocular wounds and ulcers” (The Board of Regents of the University of Oklahoma, priority 2002, dated 2011)", "molecules": {"B1": {"name": "CAP37: Cationic Antimicrobial Protein of Mr 37 kDa; recombinant protein from human 293 cells, identical to native PMN-derived CAP37 (SEQ ID NO:1) (protein, listed as Homo sapiens)", "chain": "IVGGRKARPRQFPFLASIQNQGRHFCGGALIHARFVMTAASCFQSQNPGVSTVVLGAYDLRRRERQSRQTFSISSMSENGYDPQQNLNDLMLLQLDREANLTSSVTILPLPLQNATVEAGTRCQVAGWGSQRSGGRLSRFPRFVNVTVTPEDQCRPNNVCTGVLTRRGGICNGDGGTPLVCEGLAHGVASFSLGPCGRGPDFFTRVALFRDWIDGVLNNPGP"}}, "key": {"PECAM-1 (CD31)": {"test_system": "PECAM-1 (CD31)", "test": "Flow cytometry of PECAM-1 expression on HCEC", "format": "cell-based, human", "settings": "CAP37 1 μg/ml", "method": "Flow cytometry was used to assess the upregulation of PECAM-1 (CD31), and the integrin molecules β1 (CD29), β2 (CD18), β3 (CD61), β4 (CD104), α1 (CD49a), α2 (CD49b), α3 (CD49c), α4 (CD 49d), and αv (CD51). Human corneal epithelial cells were cultured as above and treated with CAP37 (0-2000 ng/ml) for 0-72 hr. A corresponding culture was left untreated at each time point. Following treatment with CAP37, cells were detached with 0.25% trypsin in 1 mM EDTA (pH 7.4, FISHER SCIENTIFIC, Pittsburgh, Pa.), washed twice in PBS and fixed with 0.125% paraformaldehyde (J.T. BAKER, Phillipsburg, N.J.) overnight at 4° C. The cells were washed in PBS and then incubated in 0.5% normal goat serum and 0.5% bovine serum albumin (BSA) in PBS for 30 min to block non-specific binding sites. Cells were incubated in the primary antibody (at concentrations described below) at 4° C. for 1 hr followed by the secondary antibody (FITC-goat anti-mouse IgG, PHARMINGEN, San Diego, Calif.) at 0.5 μg/10^6 cells and incubated at 4° C. for 30 min. The isotype control for these studies was FITC-labeled mouse isotype IgG1 (PHARMINGEN). The cells were analyzed by flow cytometry (FACS Calibur, BECTON DICKINSON, San Jose, Calif.). At least ten thousand cells were analyzed for each sample. […]"}, "β 1 (CD29)": {"test_system": "β 1 (CD29)", "test": "Flow cytometry of integrin expression on HCEC", "format": "cell-based, human", "method": "(§1) Flow cytometry was used to assess the upregulation of PECAM-1 (CD31), and the integrin molecules β1 (CD29), β2 (CD18), β3 (CD61), β4 (CD104), α1 (CD49a), α2 (CD49b), α3 (CD49c), α4 (CD 49d), and αv (CD51). Human corneal epithelial cells were cultured as above and treated with CAP37 (0-2000 ng/ml) for 0-72 hr. A corresponding culture was left untreated at each time point. Following treatment with CAP37, cells were detached with 0.25% trypsin in 1 mM EDTA (pH 7.4, FISHER SCIENTIFIC, Pittsburgh, Pa.), washed twice in PBS and fixed with 0.125% paraformaldehyde (J.T. BAKER, Phillipsburg, N.J.) overnight at 4° C. The cells were washed in PBS and then incubated in 0.5% normal goat serum and 0.5% bovine serum albumin (BSA) in PBS for 30 min to block non-specific binding sites. Cells were incubated in the primary antibody (at concentrations described below) at 4° C. for 1 hr followed by the secondary antibody (FITC-goat anti-mouse IgG, PHARMINGEN, San Diego, Calif.) at 0.5 μg/10^6 cells and incubated at 4° C. for 30 min. The isotype control for these studies was FITC-labeled mouse isotype IgG1 (PHARMINGEN). The cells were analyzed by flow cytometry (FACS Calibur, BECTON DICKINSON, San Jose, Calif.). At least ten thousand cells were analyzed for each sample.\n(§2) The primary antibodies and the concentrations used in the flow cytometry experiments are as follows: mouse anti-human PECAM-1 (CD31) monoclonal antibody clone HEC7 (0.5 μg/10^6 cells, ENDOGEN, Woburn, Mass.), mouse anti-human very late antigen 1α (VLA-1α, or CD49a) monoclonal antibody clone SR84 (0.5 μg/10^6 cells, PHARMINGEN), mouse anti-human VLA-α2 (CD49b) monoclonal antibody clone AK-7 (0.125 μg/10^6 cells, PHARMINGEN), mouse anti-human α3 (CD49c) monoclonal antibody clone C3II.1 (0.125 μg/10^6 cells, PHARMINGEN), mouse anti-human VLA-4 (α4) monoclonal antibody clone 2B4 (1 μg/10^6 cells, R & D systems, Minneapolis, Minn.), mouse anti human α5 (CD49e) monoclonal antibody clone VC5 (0.125 μg/10^6 cells, PHARMINGEN), mouse anti-human β1 (CD29) monoclonal antibody MAR4 (2 μg/10^6 cells, PHARMINGEN), mouse anti human β2 integrin (CD18) monoclonal antibody clone 6.7 (0.5 μg/10^6 cells, PHARMINGEN), mouse anti human αvβ3 (CD51/CD61) monoclonal antibody clone 23C6 (0.5 μg/10^6 cells, PHARMINGEN), and mouse anti human integrin β4 (CD104) monoclonal antibody clone 450-11A (1.0 μg/10^6 cells, PHARMINGEN). A purified mouse IgG1 κ monoclonal immunoglobulin isotype standard (clone MOPC-31C) was used as the isotype matched control in the flow cytometry experiments."}, "α2 (CD49b; VLA-α2)": {"test_system": "α2 (CD49b; VLA-α2)", "test": "Flow cytometry of integrin expression on HCEC", "format": "cell-based, human", "method": "as §1, §2"}, "α1 (CD49a; VLA-α1)": {"test_system": "α1 (CD49a; VLA-α1)", "test": "Flow cytometry of integrin expression on HCEC", "format": "cell-based, human", "method": "as §1, §2"}, "αv β 3 (CD51/CD61)": {"test_system": "αv β 3 (CD51/CD61)", "test": "Flow cytometry of integrin expression on HCEC", "format": "cell-based, human", "method": "as §1, §2"}, "α4 (CD49d)": {"test_system": "α4 (CD49d)", "test": "Flow cytometry of integrin expression on HCEC", "format": "cell-based, human", "method": "as §1, §2"}, "α3 (CD49c)": {"test_system": "α3 (CD49c)", "test": "Flow cytometry of integrin expression on HCEC", "format": "cell-based, human", "method": "as §1, §2"}, "β 4 (CD104)": {"test_system": "β 4 (CD104)", "test": "Flow cytometry of integrin expression on HCEC", "format": "cell-based, human", "method": "as §1, §2"}, "β 2 (CD18)": {"test_system": "β 2 (CD18)", "test": "Flow cytometry of integrin expression on HCEC", "format": "cell-based, human", "method": "as §1, §2"}, "[1]": {"test_system": "human corneal epithelial cells (HCEC)", "test": "CyQUANT cell proliferation assay", "format": "cell-based", "settings": "for Increase in cell numbers: 72 hr post treatment", "method": "Human corneal epithelial cells were seeded onto 48 well tissue culture plates (7.5×10^3 cells/well, FALCON, Franklin Lakes, N.J.) and cultured as described above.\nCultures were changed to growth factor-free basic medium overnight and treated with various concentrations of CAP37 (0-2000 ng/ml) for 48-72 hrs. Recombinant human Epidermal Growth Factor (EGF 50 ng/ml, BECTON DICKINSON, Bedford, Mass.) and recombinant human Hepatocyte Growth Factor/Scatter Factor (HGF/SF 20 ng/ml, BECTON DICKINSON) were used as positive controls and growth factor-free basic medium as negative control. The medium was aspirated and new medium with CAP37 or growth factors were added to the cultures every 24 hr. The CyQUANT Cell Proliferation Assay Kit (MOLECULAR PROBES, Eugene, Oreg.) was used to quantify cell proliferation exactly according to the manufacturer's specifications. Briefly, cells were frozen, thawed, and lysed with the addition of the lysis buffer containing the green fluorescent dye, CyQUANT GR which binds to nucleic acids and the fluorescence levels read on fluorescent micro plate reader (fmax MOLECULAR DEVICES, Sunnyvale, Calif.) with filters for 485 nm excitation and 538 nm emission."}}}
{"molecule": "B1", "values": [{"measurement": "PECAM-1 protein expression", "setting": "PECAM-1 (CD31); 24 hr", "value": "waned"}, {"measurement": "PECAM-1 protein expression", "setting": "PECAM-1 (CD31); at 6 hr, maintained through 12 hr", "value": "Significant protein expression"}, {"measurement": "Upregulation of CD29 (β1)", "setting": "β 1 (CD29); 6 hr", "value": "clearly significant"}, {"measurement": "Upregulation of CD29 (β1)", "setting": "β 1 (CD29); 72 hr", "value": "still significantly elevated above background constitutive levels"}, {"measurement": "Effect of CAP37 on integrin β 1 (CD29)", "setting": "β 1 (CD29); HCEC, flow cytometry", "value": "Constitutive expression - significant upregulation"}, {"measurement": "Effect of CAP37 on integrin α2 (CD49b; VLA-α2)", "setting": "α2 (CD49b; VLA-α2)", "value": "Constitutive expression - no upregulation"}, {"measurement": "Effect of CAP37 on integrin α1 (CD49a; VLA-α1)", "setting": "α1 (CD49a; VLA-α1)", "value": "Constitutive expression - no upregulation"}, {"measurement": "Effect of CAP37 on integrin αv β 3 (CD51/CD61)", "setting": "αv β 3 (CD51/CD61)", "value": "Low constitutive expression - no upregulation"}, {"measurement": "Effect of CAP37 on integrin α4 (CD49d)", "setting": "α4 (CD49d)", "value": "Low constitutive expression - no upregulation"}, {"measurement": "CD49c protein levels", "setting": "α3 (CD49c); 48 and 72 hr", "value": "returned back to constitutive levels"}, {"measurement": "Level of CD49c protein expression", "setting": "α3 (CD49c); 4 hr to 24 hr", "value": "sustained through 24 hr"}, {"measurement": "Effect of CAP37 on integrin α3 (CD49c)", "setting": "α3 (CD49c); HCEC, flow cytometry", "value": "High constitutive expression - significant"}, {"measurement": "Time of initial upregulation of CD49c (α3)", "setting": "α3 (CD49c); HCEC, flow cytometry", "value": 4, "unit": "h"}, {"measurement": "Effect of CAP37 on integrin β 4 (CD104)", "setting": "β 4 (CD104)", "value": "Constitutive expression - no upregulation"}, {"measurement": "Effect of CAP37 on integrin β 2 (CD18)", "setting": "β 2 (CD18)", "value": "No constitutive expression - no upregulation"}, {"measurement": "Levels of proliferation relative to positive controls", "setting": "[1]; 1000-2000 ng/ml, 48 hours", "value": "comparable to those obtained with the two positive controls, EGF and HGF"}, {"measurement": "Proliferation of HCEC", "setting": "[1]; 48 hours post treatment, versus culture medium alone", "value": "significant increase in proliferation over basal levels"}, {"measurement": "Increase in cell numbers", "setting": "[1]; 1000 ng/ml", "value": "approximately two"}, {"measurement": "Increase in cell numbers", "setting": "[1]; 2000 ng/ml", "value": "three"}]}
